The target of the test is Staphylococcus aureus enterotoxin C3, wild type (Staphylococcus aureus) (UniProt P0A0L5). The experiment in a line: ITC. (In general: Isothermal titration calorimetry measures the heat released or taken up as one component is titrated into another.)

For “variable domain of the murine T cell receptor (TCR) β chain 8.2 (domain or fragment)”, the dH is -4.88 kcal/mol.

The values are drawn from PMC2964404.
